Measured values: the MegaScale stability set (Tsuboyama et al. 2023)

B1: r16_88_TrROS_Hall (parent)
chain: EVIELKIKFKTPEQREKLKEIAKKLNAEVVEEKDGEVIIRFKTPEQAERALKEAEKLGAEVEL

Variants of: B1
Experiment: folding stability dG (cDNA display proteolysis); higher = more stable
Settings: PBS, room temperature

Folding stability dG [kcal/mol], by site and new letter:
V30: P 4.07, Q 4.3, R 4.42, S 4.51, T 4.39, W 4.39, Y 4.42
E31: A 4.29, C 4.51, D 4.45, F 4.61, G 4.41, H 4.63, I 4.45, K 4.34, L 4.62, M 4.37, N 4.49, P 4.06, Q 4.57, R 4.35, S 4.6, T 4.35, V 4.37, W 4.68, Y 4.46
E32: A 4.34, C 4.53, D 4.39, F 4.57, G 4.46, H 4.49, I 4.39, K 4.45, L 4.31, M 4.33, N 4.43, P 4.54, Q 4.62, R 4.3, S 4.48, T 4.52, V 4.54, W 4.34, Y 4.65
K33: A 4.37, C 4.42, D 4.26, E 3.99, F 4.42, G 4.36, H 4.45, I 4.27, L 4.59, M 4.39, N 4.32, P 4.27, Q 4.49, R 4.43, S 4.17, T 4.35, V 4.35, W 4.45, Y 4.31
D34: A 4.32, C 4.42, E 4.44, F 4.34, G 4.46, H 4.52, I 4.5, K 4.19, L 4.3, M 4.5, N 4.3, P 4.26, Q 4.35, R 4.23, S 4.25, T 4.49, V 4.4, W 4.32, Y 4.29
G35: A 4.5, C 4.48, D 4.1, E 4.14, F 4.24, H 4.16, I 4.51, K 4.24, L 4.32, M 4.26, N 4.33, P 3.8, Q 4.25, R 4.42, S 4.48, T 4.36, V 4.35, W 4.46, Y 4.18
E36: A 4.59, C 4.39, D 4.49, F 4.66, G 4.39, H 4.68, I 4.32, K 4.65, L 4.61, M 4.48, N 4.24, P 4.07, Q 4.67, R 4.62, S 4.26, T 4.59, V 4.36, W 4.7, Y 4.89
V37: A 4.08, C 4.19, D 3.02, E 3.36, F 4.55, G 3.63, H 4.38, I 4.39, K 3.31, L 4.39, M 4.33, N 3.52, P 2.49, Q 4.07, R 3.03, S 4.19, T 4.32, W 4.36, Y 4.14
I38: A 4.26, C 4.3, D 3.82, E 3.67, F 4.96, G 3.78, H 4.63, K 3.82, L 4.25, M 4.51, N 4.24, P 1.19, Q 4.33, R 4.28, S 4.26, T 4.44, V 4.44, W 4.96, Y 4.76
I39: A 4.41, C 4.35, D 0.533, E 2.69, F 4.92, G 3.23, H 3.68, K 1.68, L 4.67, M 4.65, N 2.82, P 0.941, Q 3.99, R 0.96, S 3.19, T 3.95, V 4.44, Y 5
R40: A 4.3, C 4.37, D 3.83, E 3.93, F 4.66, G 4.15, H 4.04, I 4.47, K 4.27, L 4.5, M 4.64, N 4.13, P 2.96, Q 4.07, S 4.38, T 4.79, V 4.64, W 4.77, Y 4.86
F41: A 4.49, C 4.28, D 0.465, E 0.961, G 3.01, H 3.13, I 4.16, K 0.67, L 4.01, M 4.14, N 3.33, P 3.46, Q 2.23, R 1.04, S 4.03, T 3.73, V 4.09, W 4, Y 4.23
K42: A 4.1, C 4.29, D 4.01, E 3.81, F 4.33, G 4.03, H 4.1, I 4.37, L 4.13, M 4.18, N 4.18, P 3.79, Q 3.95, R 4.62, S 4.23, T 4.13, V 4.19, W 4.26, Y 4.36
T43: A 4.45, C 4.63, D 3.85, E 3.61, F 4.41, G 4.08, H 4.57, I 4.48, K 4.36, L 4.67, M 4.56, N 3.86, P 3.06, Q 4.3, R 4.06, S 4.53, V 4.27, W 4.29, Y 4.43
P44: A 4.58, C 4.66, D 4.15, E 4.1, F 4.54, G 4.37, H 4.75, I 4.34, K 4.61, L 4.65, M 4.59, N 4.55, Q 4.56, R 4.18, S 4.49, T 4.46, V 4.35, W 4.58, Y 4.39
E45: A 4.33, C 4.77, D 4.22, F 4.44, G 4.38, H 4.08, I 4.5, K 4.42, L 4.29, M 4.46, N 4.39, P 4.16, Q 4.38, R 4.37, S 4.29, T 4.61, V 4.24, W 4.37, Y 4.73
Q46: A 4.28, C 4.41, D 4.37, E 4.18, F 4.43, G 4.48, H 4.23, I 4.15, K 4.21, L 4.28, M 4.15, N 4.26, P 4.44, R 4, S 4.47, T 4.25, V 4.38, W 4.2, Y 4.17
A47: C 4.46, D 3.16, E 4.18, F 4.52, G 4.28, H 4.42, I 4.51, K 4.65, L 4.65, M 4.39, N 3.68, P 3.25, Q 4.8, R 4.53, S 4.39, T 4.34, V 4.63, W 4.78, Y 4.79
E48: A 4.5, C 4.52, D 4.47, F 4.72, G 4.28
